In paper PMC2805770:

Conditions: phosphorylation at S656

For synapsin-I: S656A, the localisation_or_trafficking was “changes”.
